# Experimental data from PMC5312616, “A Cholecystokinin B Receptor-Specific DNA Aptamer for Targeting Pancreatic Ductal Adenocarcinoma”.
# Like-named read-outs stand apart in the source and are kept apart here.
# T1: CCKBR N-terminal peptide BR5-21 (human, UniProt P32239 5-21)
# T1 chain: KLNRSVQGTGPGPGASL
# B1: AP1153 (66 nt) (ssDNA)
# DNA: CATGGTGCAGGTGTGGCTGGGATTCATTTGCCGGTGCTGGTGCGTCCGCGGCCGCTAATCCTGTTC
# How the values were obtained:
# CCKBR (Homo sapiens) = CCKBR (Homo sapiens) (UniProt P32239); conditions: cited from earlier work
# [1] = molecular target: T1, CCKBR N-terminal peptide BR5-21; test: not stated in material; Kd assay buffer and method not given in material; SELEX peptide-bead incubation 60 min at 37 C
# CCKBR (Homo sapiens), sequence (P32239 whole entry): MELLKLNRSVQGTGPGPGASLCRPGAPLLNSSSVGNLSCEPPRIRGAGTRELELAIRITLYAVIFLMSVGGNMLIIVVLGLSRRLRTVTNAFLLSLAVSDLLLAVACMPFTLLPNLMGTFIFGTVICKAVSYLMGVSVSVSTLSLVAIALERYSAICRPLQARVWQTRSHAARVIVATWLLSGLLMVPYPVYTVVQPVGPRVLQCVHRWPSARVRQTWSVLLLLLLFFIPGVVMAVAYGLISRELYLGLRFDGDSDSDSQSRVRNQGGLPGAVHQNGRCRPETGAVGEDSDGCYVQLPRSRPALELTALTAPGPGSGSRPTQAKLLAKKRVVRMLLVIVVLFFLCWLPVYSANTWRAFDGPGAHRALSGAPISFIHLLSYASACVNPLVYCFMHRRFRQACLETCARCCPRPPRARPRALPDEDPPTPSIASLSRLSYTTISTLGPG
molecule,measurement,setting,value
gastrin (from UniProt P01350),Kd,CCKBR (Homo sapiens),1 nM
B1,Kd,[1]; Mfold-predicted folded structure,0.0155 nM
CATGGTGCAGGTGTGGCTGGGATTCATTTGCCGGTGCTGGTGCGTCCGC (ssDNA) [AP1153 truncated (49 nt)],Kd,[1],0.206 nM
